Data as given in PMC4577212, “X-Ray Structure and Mutagenesis Studies of the N-Isopropylammelide Isopropylaminohydrolase, AtzC” (PLoS ONE, 2015).

Key:
Nc1nc(O)nc(O)n1 [1] = tested on: T1, Nc1nc(O)nc(O)n1; test: purified protein; type: biochemical, Pseudomonas sp. ADP; conditions: 200 mM sodium phosphate pH 7.5, glycerol, 301 K, 28.0 °C
T1 construct: full length, N-terminal His-tag (pETCC2, from pET14b), expressed in E. coli BL21(DE3); tag cut with thrombin for crystals; homotetramer ~210 kDa; Zn enzyme

Nc1nc(O)nc(O)n1 [2] = test: purified protein; conditions: 200 mM sodium phosphate pH 7.5, glycerol, 301 K, 28.0 °C

Row | Substance | Km (Nc1nc(O)nc(O)n1 [1]) [µM] | kcat (Nc1nc(O)nc(O)n1 [1]) [s⁻¹] | kcat/Km (Nc1nc(O)nc(O)n1 [1]) [M⁻¹ s⁻¹] | Km (Nc1nc(O)nc(O)n1 [2]) [µM]
1 | AtzC (N-isopropylammelide isopropylaminohydrolase) (Pseudomonas sp. ADP; H219A) | 1600 ± 400 | 16.8 ± 4 | 11000 | –
2 | AtzC (N-isopropylammelide isopropylaminohydrolase) (Pseudomonas sp. ADP; D188A) | 2200 ± 200 | 106 ± 11.4 | 49000 | –
3 | AtzC (N-isopropylammelide isopropylaminohydrolase) (Pseudomonas sp. ADP; N304A) | 4200 ± 200 | 29.3 ± 1.7 | 7000 | –
4 | AtzC (N-isopropylammelide isopropylaminohydrolase) (Pseudomonas sp. ADP; D303N) | 6100 ± 600 | 90.4 ± 8.9 | 15000 | –
5 | AtzC (N-isopropylammelide isopropylaminohydrolase) (Pseudomonas sp. ADP; D188N) | – | – | – | 1900 ± 500
6 | AtzC (N-isopropylammelide isopropylaminohydrolase) (Pseudomonas sp. ADP; K65A) | 6100 ± 600 | 778 ± 79.7 | 130000 | –
7 | AtzC (N-isopropylammelide isopropylaminohydrolase) (Pseudomonas sp. ADP; K65R) | 2400 ± 300 | 332 ± 34.3 | 140000 | –
8 | AtzC (N-isopropylammelide isopropylaminohydrolase) (Pseudomonas sp. ADP; Q160E) | 1300 ± 100 | 10.4 ± 0.5 | 8100 | –
9 | AtzC (N-isopropylammelide isopropylaminohydrolase) (Pseudomonas sp. ADP; N304D) | 25000 ± 4500 | 189 ± 34 | 7600 | –
10 | AtzC (N-isopropylammelide isopropylaminohydrolase) (Pseudomonas sp. ADP; Q160A) | 1800 ± 300 | 23 ± 3.5 | 13000 | –
